Assay [1] concerns the target M2 protein of influenza A/Hong Kong/483/97 (H5N1) (influenza A virus A/Hong Kong/483/97 (H5N1)).
In assay [2] the target is Hemagglutinin of influenza A/Solomon Islands/3/06 (H1N1) on whole virions (Influenza A virus A/Solomon Islands/3/2006(H1N1)).
In assay [3] the target is Hemagglutinin of influenza A/Wisconsin/67/05 (H3N2) on whole virions (Influenza A virus A/Wisconsin/67/2005(H3N2)).
The target of assay [4] is hemagglutinin (HA) of live influenza A/California/4/09 (H1N1) virus (influenza A virus A/California/04/2009 (H1N1)). The assay is described as follows: cell-based or functional assay.
In assay [5] the target is hemagglutinin (HA) of live influenza A/Solomon Islands/3/06 (H1N1) virus (influenza A virus A/Solomon Islands/3/2006 (H1N1)). The assay is described as follows: cell-based or functional assay.
For assay [6], the target named is hemagglutinin (HA) of live influenza A/Wisconsin/67/05 (H3N2) virus (influenza A virus A/Wisconsin/67/2005 (H3N2)). The assay is described as follows: cell-based or functional assay.
In assay [7] the target is recombinant soluble homotrimeric HA of A/Anhui/1/05 (H5N1) (Influenza A virus A/Anhui/1/2005 (H5N1)). Kind of assay: HA microarray, control mAb.
Assay [8] addresses recombinant soluble homotrimeric HA of A/California/4/09 (H1N1) (Influenza A virus A/California/04/2009 (H1N1)). The assay is described as follows: HA microarray, control mAb.
Assay [9] has as its target recombinant soluble homotrimeric HA of A/Egypt/3300-NAMRU3/08 (H5N1) (Influenza A virus A/Egypt/3300-NAMRU3/2008 (H5N1)). Kind of assay: HA microarray, control mAb.
The target of assay [10] is recombinant soluble homotrimeric HA of A/Hong Kong/2108/03 (H9N2) (Influenza A virus A/Hong Kong/2108/2003 (H9N2)). Kind of assay: HA microarray, control mAb.
For assay [11], the target named is recombinant soluble homotrimeric HA of A/Indonesia/5/05 (H5N1) (Influenza A virus A/Indonesia/5/2005 (H5N1)). The assay is described as follows: HA microarray, control mAb.
For assay [12], the target named is recombinant soluble homotrimeric HA of A/Japan/305/57 (H2N2) (Influenza A virus A/Japan/305/1957 (H2N2)). The assay is described as follows: HA microarray, control mAb.
The target of assay [13] is recombinant soluble homotrimeric HA of A/Netherlands/219/03 (H7N7) (Influenza A virus A/Netherlands/219/03 (H7N7)). Kind of assay: HA microarray, control mAb.
For assay [14], the target named is recombinant soluble homotrimeric HA of A/Solomon Islands/3/06 (H1N1) (Influenza A virus A/Solomon Islands/3/2006 (H1N1)). Kind of assay: HA microarray, control mAb.
The target in assay [15] is recombinant soluble homotrimeric HA of A/Vietnam/1203/04 (H5N1) (Influenza A virus A/Vietnam/1203/2004 (H5N1)). The assay is described as follows: HA microarray, control mAb.
The target in assay [16] is recombinant soluble homotrimeric HA of A/Wisconsin/67/05 (H3N2) (Influenza A virus A/Wisconsin/67/2005 (H3N2)). Kind of assay: HA microarray, control mAb.
Assay [17] deals with recombinant soluble homotrimeric HA of A/chicken/Vietnam/NCVD-016/08 (H5N1) (Influenza A virus A/chicken/Vietnam/NCVD-016/2008 (H5N1)). Kind of assay: HA microarray, control mAb.
For assay [18], the target named is recombinant soluble homotrimeric HA of A/duck/Yangzhou/02/2005 (H8N4) (Influenza A virus A/duck/Yangzhou/02/2005 (H8N4)). The assay is described as follows: HA microarray, control mAb.
Assay [19] deals with recombinant soluble homotrimeric HA of A/northern shoveler/California/HKWF115/2007 (H6N1) (Influenza A virus A/northern shoveler/California/HKWF115/2007 (H6N1)). Kind of assay: HA microarray, control mAb.
Assay [20] deals with recombinant soluble homotrimeric HA of A/swine/Ontario/01911-2/99 (H4N6) (Influenza A virus A/Swine/Ontario/01911-2/99 (H4N6)). The assay is described as follows: HA microarray, control mAb.
Assay [21] deals with recombinant soluble homotrimeric HA, A/Hong Kong/1073/99 (H9N2) (influenza A virus A/Hong Kong/1073/99 (H9N2)). The assay is described as follows: microarray, trimeric HA, transfection supernatant.
The target in assay [22] is recombinant soluble homotrimeric HA, A/Hong Kong/156/97 (H5N1) (influenza A virus A/Hong Kong/156/97 (H5N1)). The assay is described as follows: microarray, trimeric HA, transfection supernatant.
The target of assay [23] is recombinant soluble homotrimeric HA, A/Hong Kong/2108/03 (H9N2) (influenza A virus A/Hong Kong/2108/2003 (H9N2)). Kind of assay: microarray, trimeric HA, transfection supernatant.
Assay [24] concerns the target recombinant homotrimeric HA, A/California/4/09 H1N1 (Influenza A virus A/California/4/09 (H1N1)). The assay is described as follows: trimeric HA microarray; transfection supernatant set 5.
In assay [25] the target is recombinant homotrimeric HA, A/Egypt/3300-NAMRU3/08 H5N1 (Influenza A virus A/Egypt/3300-NAMRU3/08 (H5N1)). The description is as above.
The target of assay [26] is recombinant homotrimeric HA, A/Indonesia/5/05 H5N1 (Influenza A virus A/Indonesia/5/05 (H5N1)). The assay is described as above.
The target of assay [27] is recombinant homotrimeric HA, A/Japan/305/57 H2N2 (Influenza A virus A/Japan/305/57 (H2N2)). The assay is described as above.
Assay [28] concerns the target recombinant homotrimeric HA, A/Solomon Islands/3/06 H1N1 (Influenza A virus A/Solomon Islands/3/06 (H1N1)). The assay is described as above.
In assay [29] the target is recombinant homotrimeric HA, A/South Carolina/1/18 H1N1 (Influenza A virus A/South Carolina/1/18 (H1N1)). Described as above.
Assay [30] concerns the target recombinant homotrimeric HA, A/Vietnam/1203/04 H5N1 (Influenza A virus A/Vietnam/1203/04 (H5N1)). Described as above.
In assay [31] the target is recombinant homotrimeric HA, A/Wisconsin/67/05 H3N2 (Influenza A virus A/Wisconsin/67/05 (H3N2)). Described as above.
Assay [32] addresses recombinant homotrimeric HA, A/swine/Ontario/01911-2/99 H4N6 (Influenza A virus A/swine/Ontario/01911-2/99 (H4N6)). The assay is described as above.
The target in assay [33] is M2 protein of influenza A/Puerto Rico/8/34 (H1N1), on virus particles (influenza A virus A/Puerto Rico/8/34 (H1N1)) (UniProt P06821).

Where “and” joins values, the source holds several entries; their conditions need not be identical. Equal entries are not always repeated.
Throughout, for FACS M2-HK MFI: test concentration or dose not given here.
Throughout, for OD450: test concentration or dose not given here.
Throughout, for Virus ELISA OD A450: test concentration or dose not given here.

TCN-032 (8I10) (antibody), sequence (VH): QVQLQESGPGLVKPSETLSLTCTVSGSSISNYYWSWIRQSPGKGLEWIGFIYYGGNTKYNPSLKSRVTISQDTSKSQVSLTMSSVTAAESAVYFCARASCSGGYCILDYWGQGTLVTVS
TCN-032 (8I10) (antibody), sequence (VL): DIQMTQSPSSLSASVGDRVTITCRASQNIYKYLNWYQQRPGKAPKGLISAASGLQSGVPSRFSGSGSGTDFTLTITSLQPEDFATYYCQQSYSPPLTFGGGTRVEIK

As for TCN-032 (8I10) (antibody), in assay [1], the FACS M2-HK MFI was 754 MFI and 1080 MFI.

As for TCN-202 (2N9) (antibody), the OD450 in [2] was 0.07 OD450 and 0.08 OD450 and 0.1 OD450; in assay [3], 0.07 OD450 and 0.08 OD450. Further, the % Neutralization in assay [4] is 0%; in [5], 0% and 7%; in assay [6], 17.8% and 0%. The Trimeric HA Binding RLU in assay [7] turned out to be 25 RLU; in assay [8], 39 RLU; in assay [9], 1280 RLU; in [10] it was 50 RLU; in [11] it was 24 RLU; in [12], 85 RLU. In addition, the Trimeric HA Binding RLU is 348 RLU in [13]; 46 RLU in assay [14]; 53 RLU in [15]; 252 RLU in assay [16]; 69 RLU in assay [17]; 196 RLU in [18]. In addition, the Trimeric HA Binding RLU in assay [19] was 105 RLU; in assay [20], 75 RLU; in [21] it was 57 RLU and 81 RLU; in assay [22] it was 945 RLU; in assay [23] it was 30 RLU and 22 RLU. The Trimeric HA Binding: RLU turned out to be 733 RLU in assay [24]; 13900 RLU in assay [25]; 1970 RLU in [26]; 1880 RLU in [27]; 525 RLU in assay [28]; 5330 RLU in assay [29]. The Trimeric HA Binding: RLU stood at 30000 RLU in [30], 581 RLU in [31] and 2690 RLU in assay [32].

Regarding mAb 2N9 (antibody), in assay [1], the FACS M2-HK MFI was 11 MFI and 6 MFI. Moreover, in [33], the Virus ELISA OD A450 was 0.15 OD A450 and 0.05 OD A450.
